Assay results taken from patent publication US20150299265A1 (Molecular Partners, published 2015).
Changes are numbered by the printed parent chain.

B1: DARPin #50 (designed binder)
chain: MRGSHHHHHHGSDLGKKLLEAARAGQDDEVRILMANGADVNAKDKDGYTPLHLAAREGHLEIVEVLLKAGADVNAKDKDGYTPLHLAAREGHLEIVEVLLKAGADVNAQDKFGKTAFDISIDNGNEDLAEILQKLN
notes: also called negative control ankyrin repeat domain
B2: DARPin #19 (designed binder)
chain: MRGSHHHHHHGSDLGKKLLEAARAGQDDEVRELLKAGADVNAKDEYGLTPLYLATAHGHLEIVEVLLKNGADVNAVDAIGFTPLHLAAFIGHLEIAEVLLKHGADVNAQDKSGKTPADLAAGAGHEDIAEVLQKLN
notes: monovalent
B3: DARPin #20 (designed binder)
chain: B2 chain with N69A, H102A, S112F, L119I, H125N
notes: monovalent
B4: DARPin #14 (designed binder)
chain: MRGSHHHHHHGSDLGAKLLIAATVGQDDEVRILLAAGADVNAKDTIGHTPLHRAAFVGQLEIVEVLLKAGADVNAQDDYGWTPADLAANSGHEDIAEVLQKLN
notes: monovalent
B5: DARPin #15 (designed binder)
chain: B4 chain with I20V, V24S, T45R, H48F, Q59H, Y79F, W81H, N89S, S90L
notes: monovalent
B6: DARPin #51 (designed binder)
chain: MRGSHHHHHHGSDLGNKLLIAASVGQDDEVRILLAAGADVNAKDETGWTPLHLAAAWGHLEIVEVLLKAGADVNAKDVKGQTPLHLAAAYGHLEIVEVLLKAGADVNAQDNDGYTPADLAARYGHEDIAEVLQKLN
notes: monovalent
B7: DARPin #53 (designed binder)
chain: MRGSHHHHHHGSDLGAKLLWAAAKGQDDEVRILLAAGADVNAKDWEGVTPLHIAAHAGHLEIVEVLLKAGADVNAKDIIGWTPLHSAAVYGHLEIVEVLLKAGADVNAQDWYGTTPADLAAWWGHEDIAVVLQKLN
notes: monovalent
B8: DARPin #8 (designed binder)
chain: MRGSHHHHHHGSDLGIKLLWAAAHGQDDEVRILLAADADVNAKDWYGTTPLHIAAVAGHLEIVEVLLKAGADVNAKDDFGTTPLHLAAYHGHLEIVEVLLKAGADVNAQDWQGQTPADLAAQDGHEDIAEVLQKLN
notes: monovalent
B9: DARPin #52 (designed binder)
chain: B8 chain with I16V, L86A, Y89D, H90Y, W111Y, Q112T, Q114H, Q122V, D123Y, E130A
notes: monovalent
B10: DARPin #16 (designed binder)
chain: MRGSHHHHHHGSDLGIKLLQAANLGQDDEVRELLKAGADVNAKDSIGQTPLHWAARRGHLEIVEVLLKAGADVNAKDEYGVTPLHLAASLGHLEIVEVLLKAGADVNAQDESGETPADLAALHGHEDIAEVLQKLN
notes: monovalent
B11: DARPin #17 (designed binder)
chain: B10 chain with I16L, E32I, K35A, E111T, S112A, E114Q, L122D, H123D, E130V
notes: monovalent
B12: DARPin #18 (designed binder)
chain: MRGSHHHHHHGSDLGKKLLEAARAGQDDEVRILMANGADVNAKDEYGLTPLYLATAHGHLEIVEVLLKNGADVNAVDAIGFTPLHLAAFIGHLEIAEVLLKHGADVNAQDKFGKTAFDISIGNGNEDLAEILQKLN
notes: monovalent
B13: DARPin #54 (designed binder)
chain: MRGSHHHHHHGSDLGIKLLFAAAKGQDDEVRELLKAGADVNAKDFQGVTPLHIAAQSGHLEIVEVLLKAGADVNAKDVTGDTPLHLAAQHGHLEIVEVLLKAGADVNAQDERGWTPADLAADWGHEDIAEVLQKLN
notes: monovalent
B14: DARPin #57 (designed binder)
chain: B13 chain with F20W, K24Q, E32I, K35A, I62V
notes: monovalent
B15: DARPin #55 (designed binder)
chain: B13 chain with F20I, A23S, K24H, E32I, K35A, D39N
notes: monovalent
B16: DARPin #59 (designed binder)
chain: MRGSHHHHHHGSDLGVKLLWAAARGQDDEVRELLKAGADVNAKDFQGITPLHIAATNGHLEIVEVLLKAGADVNAKDITGETPLHHAADSGHLEIVEVLLKAGADVNAQDKAGVTPADLAAAWGHEDIAEVLQKLN
notes: monovalent
B17: DARPin #56 (designed binder)
chain: B13 chain with I16Q, F20I, A23S, K24R, E32I, K35A, A117T
notes: monovalent
B18: DARPin #58 (designed binder)
chain: B13 chain with I16F, G25S, E32I, K35A, P50S
notes: monovalent
B19: DARPin #5 (designed binder)
chain: B16 chain with E32I, K35A
notes: monovalent
B20: DARPin #7 (designed binder)
chain: MRGSHHHHHHGSDLGIKLLFAAAKGQDDEVRILLAAGADVNAKDFEGYTPLHVAAYDGHLEIVEVLLKAGADVNAKDSQGRTPLHEAAYSGHLEIVEVLLKAGADVNAQDDAGETPADLAAAWGHEDIAEVLQKLN
notes: monovalent
B21: DARPin #10 (designed binder)
chain: MRGSHHHHHHGSDLGVKLLWAASHGQDDEVRILLAAGADVNAKDFFGITPLHQAAWGHLEIVEVLLKAGADVNAKEEDGTTPLHLAATHGHLEIVEVLLKAGADVNAQDWYGTTPADLAAWWGHEDIAEVLQKLN
notes: monovalent
B22: DARPin #21 (designed binder)
chain: MRGSHHHHHHGSDLGKKLLEAARAGQDDEVRILMANGADVNATDIHGHTPLHLAAAMGHLEIVEVLLKNGADVNANDWRGFTPLHLAALNGHLEIVEVLLKNGADVNATDTAGNTPLHLAAWFGHLEIVEVLLKNGADVNAQDKFGKTAFDISIDNGNEDLAEILQKLN
notes: monovalent
B23: DARPin #12 (designed binder)
chain: MRGSHHHHHHGSDLGKKLLEAARAGQDDEVRILMANGADVNAKDFYGITPLHLAAAYGHLEIVEVLLKHGADVNAHDWNGWTPLHLAAKYGHLEIVEVLLKHGADVNAIDNAGKTPLHLAAAHGHLEIVEVLLKYGADVNAQDKFGKTAFDISIDNGNEDLAEILQKLN
notes: monovalent
B24: DARPin #11 (designed binder)
chain: MRGSHHHHHHGSDLGIKLLFAASRGQDDEVRILLAAGADVNAKDFEGITPLHAAARSGHLEIVEVLLKAGADVNAKDVEGWTPLHYAASYGHLEIVEVLLKAGADVNAQDNHGATPADLAAQWGHEDIAEVLQKLN
notes: monovalent
B25: DARPin #9 (designed binder)
chain: MRGSHHHHHHGSDLGHKLLEAAVAGQDDEVRILLAAGADVNAKDWYGKTPLHFAAGLGHLEIVEVLLKAGADVNAKDEDGQTPLHLAAAYGHLEIVEVLLKAGADVNAQDNDGFTPADLAADSGHEDIAEVLQKLN
notes: monovalent
B26: DARPin #41 (designed binder)
chain: MRGSHHHHHHGSDLGAKLLSDLGVKLLWAAARGQDDEVRILLAAGADVNAKDFQGITPLHIAAQSGHLEIVEVLLKAGADVNAKDVTGDTPLHLAAQHGHLVIVEVLLKAGADVNAQDERGWTPADLAADWGHEDIAEVLQKLGGGGSGGGGSRSDLGKKLLEAARAGQDDEVRILMANGADVNAKDEYGLTPLYLATAHGHLEIVEVLLKNGADVNAVDAIGFTPLHLAAFIGHLEIAEVLLKHGADVNAQDKFGKTAFDISIGNGNEDLAEILQKLN

biological target: T1, Recombinant human HER2 ectodomain (human, UniProt P04626 23-652, biotinylated on primary amines (for SPR and crude extract ELISA)); test: ELISA on plate-coated full length HER2 (domain I-IV), detection by anti-RGS-His antibody; with and without 500 nM soluble HER2 domain I or domain I-III
T1 construct: extracellular domain; also called ErbB2; ectodomain of human HER2; not shown: Flag tag

**Q.** Does B1 bind?
**A.** no binding (tested: 20 nM (not printed on the sheet))

biological target: T1, Recombinant human HER2 ectodomain; test: SPR (ProteOn); biotinylated human HER2 on neutravidin chip, monovalent DARPin injected
Procedure: Protein binding kinetics of interesting purified HER2-binding DARPins were assayed by Surface Plasmon Resonance (SPR) analysis with a ProteOn array system (BioRad) using a setup, where biotinylated human HER2 was immobilized via neutravidin and the interaction was measured by adding free monovalent DARPin. The determination of Kd values was performed according to standard procedures.
SPR was measured using a ProteOn instrument (BioRad) and measurement was performed according standard procedures known to the person skilled in the art. The running buffer was PBS, pH 7.4, containing 0.005% Tween 20®. Neutravidin was covalently immobilized on a GLC chip (BioRad) to a level of about 8000 resonance units (RU). Immobilization of HER2 on the neutravidin coated chip was then performed. […] The signals (i.e. resonance unit (RU) values) of an uncoated reference cell and a reference injection (i.e. injection of running buffer only) were subtracted from the RU traces obtained after injection of […] (double-referencing). From the SRP traces obtained from the on-rate and off-rate measurements the on- and off-rate of the corresponding DARPin HER2 interaction can be determined.
Dissociation constants (Kd) were calculated from the estimated on- and off-rates using standard procedures known to the person skilled in the art.

**Q.** Which Kd does the source give for B2 here?
**A.** 0.944 nM

**Q.** With B3 as the binder, how does the Kd read?
**A.** 0.258 nM

**Q.** For B4, which Kd is on record?
**A.** 1.88 nM

**Q.** B5 was tested. Which Kd did it give?
**A.** 0.468 nM

**Q.** With B6 as the binder, how does the Kd read?
**A.** 1.3 nM

**Q.** Which Kd does the source give for B7 here?
**A.** 1.46 nM

**Q.** With B8 as the binder, how does the Kd read?
**A.** 0.483 nM

**Q.** With B9 as the binder, how does the Kd read?
**A.** 0.137 nM

**Q.** Which Kd does the source give for B10 here?
**A.** 2.67 nM

**Q.** With B11 as the binder, how does the Kd read?
**A.** 2.3 nM

**Q.** For B12, which Kd is on record?
**A.** 0.335 nM

**Q.** How did the Kd turn out when B13 was run?
**A.** 0.00927 nM

**Q.** Which Kd does the source give for B14 here?
**A.** 0.0604 nM

**Q.** B15 was tested. Which Kd did it give?
**A.** 0.0873 nM

**Q.** Which Kd does the source give for B16 here?
**A.** 0.0333 nM

**Q.** For B17, which Kd is on record?
**A.** 2 nM

**Q.** B18 was tested. Which Kd did it give?
**A.** 0.0413 nM

**Q.** For B19, which Kd is on record?
**A.** 0.0708 nM

**Q.** With B20 as the binder, how does the Kd read?
**A.** 1.03 nM

**Q.** B21 was tested. Which Kd did it give?
**A.** 1.03 nM

**Q.** How did the Kd turn out when B22 was run?
**A.** 1.65 nM

**Q.** With B23 as the binder, how does the Kd read?
**A.** 1.41 nM

**Q.** Which Kd does the source give for B24 here?
**A.** 0.256 nM

**Q.** B25 was tested. Which Kd did it give?
**A.** 0.417 nM

biological target: T2, Human HER2 expressed on tumour cells (human, UniProt P04626 23-1255); test: cell-based or functional assay

**Q.** Which results are given for B26?
**A.** % activity vs. DARPin # 41, BT474 cell proliferation: 100%; IC50 [nM], inhibition of BT474 cell proliferation (BrdU): 4.01 nM

biological target: T2, Human HER2 expressed on tumour cells; test: cell-based or functional assay; remark: another data set of the same source

**Q.** B26 was tested. Which “IC50, inhibition of BT474 proliferation (single experiment of FIG. 2A)” value did it give?
**A.** ~2 nM
